This is an account of results in US20140072613A1 (published 2014).

Targets include FGFR3(h) (human, UniProt P22607 397-806); MEK1(h) (human, UniProt Q02750 1-393); PKBγ(h) (human, UniProt Q9Y243 1-479, limits assumed); PAK6(h) (human, UniProt Q9NQU5 1-681, limits assumed); MAPK1(h) (human, UniProt P28482 1-360, limits assumed); CK2(h) (human); JNK2α2(h) (human, UniProt P45984 1-424); PAK3(h) (human, UniProt O75914 1-559, limits assumed); CSK(h) (human, UniProt P41240 1-450); FGFR2(h) (human, UniProt P21802 456-770, limits assumed).

What all share (experiment): cell-based or functional assay
The target of a further experiment is T1, MKK6(h) (human, UniProt P52564 1-334).
T1 sequence (looked up): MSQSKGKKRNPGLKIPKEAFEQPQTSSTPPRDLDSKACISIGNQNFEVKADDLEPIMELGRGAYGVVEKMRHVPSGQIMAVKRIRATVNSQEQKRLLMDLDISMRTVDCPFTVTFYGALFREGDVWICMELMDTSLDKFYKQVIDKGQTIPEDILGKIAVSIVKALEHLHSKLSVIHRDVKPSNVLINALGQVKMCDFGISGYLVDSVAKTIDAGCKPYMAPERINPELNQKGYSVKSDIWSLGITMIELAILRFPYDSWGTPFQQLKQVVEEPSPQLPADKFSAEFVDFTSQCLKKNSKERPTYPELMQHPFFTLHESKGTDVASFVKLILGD

The target in another experiment is T2, Txk(h) (human, UniProt P42681 1-527, limits assumed).
T2 sequence (looked up): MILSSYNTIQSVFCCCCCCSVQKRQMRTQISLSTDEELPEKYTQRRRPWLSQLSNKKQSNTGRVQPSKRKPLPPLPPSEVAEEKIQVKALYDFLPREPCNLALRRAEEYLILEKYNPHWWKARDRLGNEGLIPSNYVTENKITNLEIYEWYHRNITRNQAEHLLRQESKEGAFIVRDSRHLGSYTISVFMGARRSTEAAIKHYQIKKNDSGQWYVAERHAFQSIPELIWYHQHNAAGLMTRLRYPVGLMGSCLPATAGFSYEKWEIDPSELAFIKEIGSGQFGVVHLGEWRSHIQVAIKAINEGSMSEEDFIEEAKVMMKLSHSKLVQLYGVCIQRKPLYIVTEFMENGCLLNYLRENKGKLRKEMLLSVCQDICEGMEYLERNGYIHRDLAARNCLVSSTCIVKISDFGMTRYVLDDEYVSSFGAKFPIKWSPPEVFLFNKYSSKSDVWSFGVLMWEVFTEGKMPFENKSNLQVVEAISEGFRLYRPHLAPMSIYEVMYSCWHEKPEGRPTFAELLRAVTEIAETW

The target of another experiment is T3, GCK(h) (human, UniProt Q12851 1-820, limits assumed).
T3 sequence (looked up): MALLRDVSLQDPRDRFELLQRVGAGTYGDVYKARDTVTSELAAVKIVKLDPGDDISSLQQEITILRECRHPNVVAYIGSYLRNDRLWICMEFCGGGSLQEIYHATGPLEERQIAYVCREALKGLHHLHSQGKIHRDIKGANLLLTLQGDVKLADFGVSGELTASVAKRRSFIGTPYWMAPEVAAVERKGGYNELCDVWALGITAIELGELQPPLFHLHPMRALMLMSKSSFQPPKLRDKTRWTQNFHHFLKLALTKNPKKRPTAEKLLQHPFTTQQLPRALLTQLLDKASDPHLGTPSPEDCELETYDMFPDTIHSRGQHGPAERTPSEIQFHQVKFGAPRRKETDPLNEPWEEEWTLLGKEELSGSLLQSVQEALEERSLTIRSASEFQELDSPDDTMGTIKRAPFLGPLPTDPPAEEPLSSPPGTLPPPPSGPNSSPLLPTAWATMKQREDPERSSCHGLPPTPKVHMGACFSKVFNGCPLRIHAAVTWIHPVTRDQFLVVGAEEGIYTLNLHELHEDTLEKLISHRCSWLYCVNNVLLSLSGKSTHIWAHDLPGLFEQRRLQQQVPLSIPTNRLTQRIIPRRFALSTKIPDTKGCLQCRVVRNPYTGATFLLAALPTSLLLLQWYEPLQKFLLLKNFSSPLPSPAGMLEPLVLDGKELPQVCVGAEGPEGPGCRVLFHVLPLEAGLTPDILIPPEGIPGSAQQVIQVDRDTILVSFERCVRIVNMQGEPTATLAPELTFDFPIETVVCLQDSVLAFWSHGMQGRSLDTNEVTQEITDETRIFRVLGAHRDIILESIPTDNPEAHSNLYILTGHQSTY

Chain of PAK6(h) (Q9NQU5 whole entry): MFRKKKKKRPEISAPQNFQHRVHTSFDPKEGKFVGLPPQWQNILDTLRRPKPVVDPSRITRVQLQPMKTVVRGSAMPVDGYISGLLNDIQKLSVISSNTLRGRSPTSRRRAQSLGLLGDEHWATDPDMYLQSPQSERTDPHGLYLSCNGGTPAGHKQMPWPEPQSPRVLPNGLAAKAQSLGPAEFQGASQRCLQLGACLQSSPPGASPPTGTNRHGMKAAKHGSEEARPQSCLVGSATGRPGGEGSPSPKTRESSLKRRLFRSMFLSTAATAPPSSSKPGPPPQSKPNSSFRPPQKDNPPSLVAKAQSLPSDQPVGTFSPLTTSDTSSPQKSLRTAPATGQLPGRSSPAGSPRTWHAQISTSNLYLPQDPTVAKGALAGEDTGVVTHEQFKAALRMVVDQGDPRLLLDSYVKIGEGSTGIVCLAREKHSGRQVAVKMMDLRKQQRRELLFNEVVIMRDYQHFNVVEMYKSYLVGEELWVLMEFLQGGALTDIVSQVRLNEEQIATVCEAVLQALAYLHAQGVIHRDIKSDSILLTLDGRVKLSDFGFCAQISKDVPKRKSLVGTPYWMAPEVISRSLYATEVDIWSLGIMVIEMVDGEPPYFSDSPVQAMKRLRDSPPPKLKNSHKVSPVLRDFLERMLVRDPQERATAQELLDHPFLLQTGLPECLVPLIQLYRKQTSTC
Chain of MAPK1(h) (P28482 whole entry): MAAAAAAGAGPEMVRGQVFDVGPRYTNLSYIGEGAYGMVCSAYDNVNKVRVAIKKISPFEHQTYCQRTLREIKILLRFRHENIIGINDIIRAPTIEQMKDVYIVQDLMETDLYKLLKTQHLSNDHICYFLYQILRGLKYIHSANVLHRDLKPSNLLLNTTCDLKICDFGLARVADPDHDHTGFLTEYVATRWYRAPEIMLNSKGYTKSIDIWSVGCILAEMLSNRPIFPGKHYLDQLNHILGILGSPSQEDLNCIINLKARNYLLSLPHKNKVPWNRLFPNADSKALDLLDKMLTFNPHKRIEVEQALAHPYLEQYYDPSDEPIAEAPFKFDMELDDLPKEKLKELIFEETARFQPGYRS
Chain of PAK3(h) (O75914 whole entry): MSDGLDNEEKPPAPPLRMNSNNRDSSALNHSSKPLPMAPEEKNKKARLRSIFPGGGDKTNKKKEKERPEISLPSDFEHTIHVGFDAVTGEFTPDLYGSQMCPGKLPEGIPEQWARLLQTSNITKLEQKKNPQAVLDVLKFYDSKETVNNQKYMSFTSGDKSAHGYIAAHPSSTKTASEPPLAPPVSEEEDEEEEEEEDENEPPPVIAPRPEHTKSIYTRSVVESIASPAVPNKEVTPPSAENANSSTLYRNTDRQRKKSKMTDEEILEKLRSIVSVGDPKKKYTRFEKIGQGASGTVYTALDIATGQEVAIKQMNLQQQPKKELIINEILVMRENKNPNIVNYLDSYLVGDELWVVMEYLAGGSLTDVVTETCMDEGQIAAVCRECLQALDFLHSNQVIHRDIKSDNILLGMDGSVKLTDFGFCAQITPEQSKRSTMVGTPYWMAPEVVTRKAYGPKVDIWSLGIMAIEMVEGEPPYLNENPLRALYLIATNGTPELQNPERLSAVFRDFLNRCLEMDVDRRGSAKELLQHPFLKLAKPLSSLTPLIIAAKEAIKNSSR
Chain of PKBγ(h) (Q9Y243 whole entry): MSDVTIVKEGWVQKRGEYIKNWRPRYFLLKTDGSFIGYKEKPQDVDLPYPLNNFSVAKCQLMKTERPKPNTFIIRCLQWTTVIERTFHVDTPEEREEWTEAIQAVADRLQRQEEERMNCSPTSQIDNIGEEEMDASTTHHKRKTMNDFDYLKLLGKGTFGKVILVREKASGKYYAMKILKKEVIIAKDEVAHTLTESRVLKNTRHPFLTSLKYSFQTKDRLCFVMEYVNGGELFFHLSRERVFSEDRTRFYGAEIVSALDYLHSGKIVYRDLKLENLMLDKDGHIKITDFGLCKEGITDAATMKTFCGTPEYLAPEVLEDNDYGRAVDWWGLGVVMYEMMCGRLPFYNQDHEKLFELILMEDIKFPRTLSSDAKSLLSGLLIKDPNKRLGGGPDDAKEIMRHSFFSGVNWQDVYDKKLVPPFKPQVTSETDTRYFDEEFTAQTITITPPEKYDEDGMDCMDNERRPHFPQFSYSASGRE
Chain of CSK(h) (P41240 whole entry): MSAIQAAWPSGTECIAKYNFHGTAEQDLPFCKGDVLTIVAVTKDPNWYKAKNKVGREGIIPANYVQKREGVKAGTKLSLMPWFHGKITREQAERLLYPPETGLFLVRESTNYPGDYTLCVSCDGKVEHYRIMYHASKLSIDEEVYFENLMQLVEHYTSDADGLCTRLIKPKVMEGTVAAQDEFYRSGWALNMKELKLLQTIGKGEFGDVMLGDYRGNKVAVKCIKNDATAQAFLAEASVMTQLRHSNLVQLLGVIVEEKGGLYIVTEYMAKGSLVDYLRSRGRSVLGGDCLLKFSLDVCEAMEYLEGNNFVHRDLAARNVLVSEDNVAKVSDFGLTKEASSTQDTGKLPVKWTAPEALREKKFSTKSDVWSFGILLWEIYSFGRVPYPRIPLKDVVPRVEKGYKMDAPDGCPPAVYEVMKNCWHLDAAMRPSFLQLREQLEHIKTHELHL
Chain of FGFR3(h) (P22607 397-806 limits assumed): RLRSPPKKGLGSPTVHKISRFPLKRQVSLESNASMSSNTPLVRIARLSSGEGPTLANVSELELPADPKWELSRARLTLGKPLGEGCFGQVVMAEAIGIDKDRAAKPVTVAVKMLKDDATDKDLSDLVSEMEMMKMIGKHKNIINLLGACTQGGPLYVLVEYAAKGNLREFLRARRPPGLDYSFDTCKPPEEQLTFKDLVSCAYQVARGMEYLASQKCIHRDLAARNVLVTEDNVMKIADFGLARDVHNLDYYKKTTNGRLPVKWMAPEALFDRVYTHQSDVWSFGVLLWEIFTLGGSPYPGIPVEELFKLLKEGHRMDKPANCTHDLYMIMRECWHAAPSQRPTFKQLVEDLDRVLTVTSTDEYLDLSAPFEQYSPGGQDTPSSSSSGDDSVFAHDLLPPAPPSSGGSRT
Chain of FGFR2(h) (P21802 456-770 limits assumed): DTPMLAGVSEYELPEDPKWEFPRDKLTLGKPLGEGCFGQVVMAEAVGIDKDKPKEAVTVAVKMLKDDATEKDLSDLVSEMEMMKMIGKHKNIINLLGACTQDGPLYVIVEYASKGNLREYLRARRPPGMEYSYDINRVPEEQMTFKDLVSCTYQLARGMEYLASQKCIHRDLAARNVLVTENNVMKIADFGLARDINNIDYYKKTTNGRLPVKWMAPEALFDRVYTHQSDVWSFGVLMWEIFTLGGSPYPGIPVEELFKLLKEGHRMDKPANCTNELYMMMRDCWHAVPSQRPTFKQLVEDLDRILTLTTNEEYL

B1: MMI-0400 (peptide)
peptide: KAFAKLAARLYRKALARQLGVAA
Take B1: the “% activity, 100 µM” value was determined as 0% in the experiment with FGFR3(h); 77% with MEK1(h); 41% with PKBγ(h); 100% with PAK6(h); 100% with MAPK1(h); 101% in the experiment with CK2(h). Besides, the “% activity, 100 µM” value with JNK2α2(h) was found to be 96%; with MKK6(h) it was 44%; with PAK3(h), 121%; in the experiment with Txk(h) it was 37%; with CSK(h), 16%; in the experiment with GCK(h) it was 66%. In addition, in the experiment with FGFR2(h), the “% activity, 100 µM” value was determined as 18%.

B2: MMI-0300 (peptide)
peptide: FAKLAARLYRKALARQLGVAA
In the case of B2, the “% activity, 100 µM” value in the experiment with FGFR3(h) worked out at 102%; with MEK1(h), 77%; with PKBγ(h), 20%; with PAK6(h) it was 104%; with MAPK1(h), 107%; with CK2(h), 90%. In addition, the “% activity, 100 µM” value in the experiment with JNK2α2(h) amounted to 98%; with MKK6(h), 48%; in the experiment with PAK3(h), 140%; with Txk(h) it was 48%; in the experiment with CSK(h) it was 49%; with GCK(h), 70%. Further, in the experiment with FGFR2(h), the “% activity, 100 µM” value amounted to 14%.
